From patent US20210388087A1 (Chugai, published 2021)

Target: T1, CD3 epsilon homodimer protein (UniProt P07766 23-126)
T1 construct: also called CD3 (CD3 epsilon)
Experiment: SPR, antibody over immobilised CD3e homodimer;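 further: SPR at 25 °C with CD3 epsilon homodimer amine-coupled to a CM4 sensor chip and antibody flowed over as analyte in HBS-EP+ running buffer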

T1 sequence (P07766 23-126): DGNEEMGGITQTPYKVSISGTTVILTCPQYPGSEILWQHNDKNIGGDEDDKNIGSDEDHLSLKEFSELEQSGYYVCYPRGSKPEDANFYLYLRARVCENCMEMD

| Binder | KD ratio to GLS3000 |
| --- | --- |
| CE115HA000/GLS3000 N30P (antibody, IgG1, name in Kabat numbering, V domains shown, one-arm IgG1) VH: QVQLVESGGGVVQPGRSLRLSCAASGFTFSNAWMHWVRQAPGKGLEWVAQIKAKSNNYATYYAESVKGRFTISRDDSKNSLYLQMNSLKTEDTAVYYCRYVHYGAYYGVDAWGQGTTVTVSS VL: DIVMTQSPLSLPVTPGEPASISCRSSQSLVHSNRPTYLHWYQQKPGQAPRLLIYKVSNRFSGVPDRFSGSGSGTDFTLKISRVEAEDVGVYYCGQGTQVPYTFGQGTKLEIK | 12.1 |
| CE115HA000/GLS3000 N53D (antibody, IgG1, name in Kabat numbering, V domains shown, one-arm IgG1) VH: QVQLVESGGGVVQPGRSLRLSCAASGFTFSNAWMHWVRQAPGKGLEWVAQIKAKSNNYATYYAESVKGRFTISRDDSKNSLYLQMNSLKTEDTAVYYCRYVHYGAYYGVDAWGQGTTVTVSS VL: DIVMTQSPLSLPVTPGEPASISCRSSQSLVHSNRNTYLHWYQQKPGQAPRLLIYKVSDRFSGVPDRFSGSGSGTDFTLKISRVEAEDVGVYYCGQGTQVPYTFGQGTKLEIK | 2.8 |
| CE115HA000/GLS3000 N53A (antibody, IgG1, name in Kabat numbering, V domains shown, one-arm IgG1) VH: QVQLVESGGGVVQPGRSLRLSCAASGFTFSNAWMHWVRQAPGKGLEWVAQIKAKSNNYATYYAESVKGRFTISRDDSKNSLYLQMNSLKTEDTAVYYCRYVHYGAYYGVDAWGQGTTVTVSS VL: DIVMTQSPLSLPVTPGEPASISCRSSQSLVHSNRNTYLHWYQQKPGQAPRLLIYKVSARFSGVPDRFSGSGSGTDFTLKISRVEAEDVGVYYCGQGTQVPYTFGQGTKLEIK | 0.82 |
| CE115HA000/GLS3000 N53P (antibody, IgG1, name in Kabat numbering, V domains shown, one-arm IgG1) VH: QVQLVESGGGVVQPGRSLRLSCAASGFTFSNAWMHWVRQAPGKGLEWVAQIKAKSNNYATYYAESVKGRFTISRDDSKNSLYLQMNSLKTEDTAVYYCRYVHYGAYYGVDAWGQGTTVTVSS VL: DIVMTQSPLSLPVTPGEPASISCRSSQSLVHSNRNTYLHWYQQKPGQAPRLLIYKVSPRFSGVPDRFSGSGSGTDFTLKISRVEAEDVGVYYCGQGTQVPYTFGQGTKLEIK | 0.98 |
| CE115HA000/GLS3000 N53R (antibody, IgG1, name in Kabat numbering, V domains shown, one-arm IgG1) VH: QVQLVESGGGVVQPGRSLRLSCAASGFTFSNAWMHWVRQAPGKGLEWVAQIKAKSNNYATYYAESVKGRFTISRDDSKNSLYLQMNSLKTEDTAVYYCRYVHYGAYYGVDAWGQGTTVTVSS VL: DIVMTQSPLSLPVTPGEPASISCRSSQSLVHSNRNTYLHWYQQKPGQAPRLLIYKVSRRFSGVPDRFSGSGSGTDFTLKISRVEAEDVGVYYCGQGTQVPYTFGQGTKLEIK | 1.56 |
| CE115HA000/GLS3000 N30R (antibody, IgG1, name in Kabat numbering, V domains shown, one-arm IgG1) VH: QVQLVESGGGVVQPGRSLRLSCAASGFTFSNAWMHWVRQAPGKGLEWVAQIKAKSNNYATYYAESVKGRFTISRDDSKNSLYLQMNSLKTEDTAVYYCRYVHYGAYYGVDAWGQGTTVTVSS VL: DIVMTQSPLSLPVTPGEPASISCRSSQSLVHSNRRTYLHWYQQKPGQAPRLLIYKVSNRFSGVPDRFSGSGSGTDFTLKISRVEAEDVGVYYCGQGTQVPYTFGQGTKLEIK | 1.73 |
| CE115HA000/GLS3000 N30T (antibody, IgG1, name in Kabat numbering, V domains shown, one-arm IgG1) VH: QVQLVESGGGVVQPGRSLRLSCAASGFTFSNAWMHWVRQAPGKGLEWVAQIKAKSNNYATYYAESVKGRFTISRDDSKNSLYLQMNSLKTEDTAVYYCRYVHYGAYYGVDAWGQGTTVTVSS VL: DIVMTQSPLSLPVTPGEPASISCRSSQSLVHSNRTTYLHWYQQKPGQAPRLLIYKVSNRFSGVPDRFSGSGSGTDFTLKISRVEAEDVGVYYCGQGTQVPYTFGQGTKLEIK | 12.7 |
| CE115HA000/GLS3000 N30S (antibody, IgG1, name in Kabat numbering, V domains shown, one-arm IgG1) VH: QVQLVESGGGVVQPGRSLRLSCAASGFTFSNAWMHWVRQAPGKGLEWVAQIKAKSNNYATYYAESVKGRFTISRDDSKNSLYLQMNSLKTEDTAVYYCRYVHYGAYYGVDAWGQGTTVTVSS VL: DIVMTQSPLSLPVTPGEPASISCRSSQSLVHSNRSTYLHWYQQKPGQAPRLLIYKVSNRFSGVPDRFSGSGSGTDFTLKISRVEAEDVGVYYCGQGTQVPYTFGQGTKLEIK | 10.6 |
| CE115HA000/GLS3000 N53L (antibody, IgG1, name in Kabat numbering, V domains shown, one-arm IgG1) VH: QVQLVESGGGVVQPGRSLRLSCAASGFTFSNAWMHWVRQAPGKGLEWVAQIKAKSNNYATYYAESVKGRFTISRDDSKNSLYLQMNSLKTEDTAVYYCRYVHYGAYYGVDAWGQGTTVTVSS VL: DIVMTQSPLSLPVTPGEPASISCRSSQSLVHSNRNTYLHWYQQKPGQAPRLLIYKVSLRFSGVPDRFSGSGSGTDFTLKISRVEAEDVGVYYCGQGTQVPYTFGQGTKLEIK | 1.62 |
| CE115HA000/GLS3000 N30W (antibody, IgG1, name in Kabat numbering, V domains shown, one-arm IgG1) VH: QVQLVESGGGVVQPGRSLRLSCAASGFTFSNAWMHWVRQAPGKGLEWVAQIKAKSNNYATYYAESVKGRFTISRDDSKNSLYLQMNSLKTEDTAVYYCRYVHYGAYYGVDAWGQGTTVTVSS VL: DIVMTQSPLSLPVTPGEPASISCRSSQSLVHSNRWTYLHWYQQKPGQAPRLLIYKVSNRFSGVPDRFSGSGSGTDFTLKISRVEAEDVGVYYCGQGTQVPYTFGQGTKLEIK | 0.97 |
| CE115HA000/GLS3000 N30Q (antibody, IgG1, name in Kabat numbering, V domains shown, one-arm IgG1) VH: QVQLVESGGGVVQPGRSLRLSCAASGFTFSNAWMHWVRQAPGKGLEWVAQIKAKSNNYATYYAESVKGRFTISRDDSKNSLYLQMNSLKTEDTAVYYCRYVHYGAYYGVDAWGQGTTVTVSS VL: DIVMTQSPLSLPVTPGEPASISCRSSQSLVHSNRQTYLHWYQQKPGQAPRLLIYKVSNRFSGVPDRFSGSGSGTDFTLKISRVEAEDVGVYYCGQGTQVPYTFGQGTKLEIK | 1 |
| CE115HA000/GLS3000 N53M (antibody, IgG1, name in Kabat numbering, V domains shown, one-arm IgG1) VH: QVQLVESGGGVVQPGRSLRLSCAASGFTFSNAWMHWVRQAPGKGLEWVAQIKAKSNNYATYYAESVKGRFTISRDDSKNSLYLQMNSLKTEDTAVYYCRYVHYGAYYGVDAWGQGTTVTVSS VL: DIVMTQSPLSLPVTPGEPASISCRSSQSLVHSNRNTYLHWYQQKPGQAPRLLIYKVSMRFSGVPDRFSGSGSGTDFTLKISRVEAEDVGVYYCGQGTQVPYTFGQGTKLEIK | 1.21 |

Continued, values first:

| KD ratio to GLS3000 | Binder |
| --- | --- |
| 2.47 | CE115HA000/GLS3000 N53E (antibody, IgG1, name in Kabat numbering, V domains shown, one-arm IgG1) VH: QVQLVESGGGVVQPGRSLRLSCAASGFTFSNAWMHWVRQAPGKGLEWVAQIKAKSNNYATYYAESVKGRFTISRDDSKNSLYLQMNSLKTEDTAVYYCRYVHYGAYYGVDAWGQGTTVTVSS VL: DIVMTQSPLSLPVTPGEPASISCRSSQSLVHSNRNTYLHWYQQKPGQAPRLLIYKVSERFSGVPDRFSGSGSGTDFTLKISRVEAEDVGVYYCGQGTQVPYTFGQGTKLEIK |
| 1.03 | CE115HA000/GLS3000 N30Y (antibody, IgG1, name in Kabat numbering, V domains shown, one-arm IgG1) VH: QVQLVESGGGVVQPGRSLRLSCAASGFTFSNAWMHWVRQAPGKGLEWVAQIKAKSNNYATYYAESVKGRFTISRDDSKNSLYLQMNSLKTEDTAVYYCRYVHYGAYYGVDAWGQGTTVTVSS VL: DIVMTQSPLSLPVTPGEPASISCRSSQSLVHSNRYTYLHWYQQKPGQAPRLLIYKVSNRFSGVPDRFSGSGSGTDFTLKISRVEAEDVGVYYCGQGTQVPYTFGQGTKLEIK |
| 1.28 | CE115HA000/GLS3000 N53Q (antibody, IgG1, name in Kabat numbering, V domains shown, one-arm IgG1) VH: QVQLVESGGGVVQPGRSLRLSCAASGFTFSNAWMHWVRQAPGKGLEWVAQIKAKSNNYATYYAESVKGRFTISRDDSKNSLYLQMNSLKTEDTAVYYCRYVHYGAYYGVDAWGQGTTVTVSS VL: DIVMTQSPLSLPVTPGEPASISCRSSQSLVHSNRNTYLHWYQQKPGQAPRLLIYKVSQRFSGVPDRFSGSGSGTDFTLKISRVEAEDVGVYYCGQGTQVPYTFGQGTKLEIK |
| 2.69 | CE115HA000/GLS3000 N53I (antibody, IgG1, name in Kabat numbering, V domains shown, one-arm IgG1) VH: QVQLVESGGGVVQPGRSLRLSCAASGFTFSNAWMHWVRQAPGKGLEWVAQIKAKSNNYATYYAESVKGRFTISRDDSKNSLYLQMNSLKTEDTAVYYCRYVHYGAYYGVDAWGQGTTVTVSS VL: DIVMTQSPLSLPVTPGEPASISCRSSQSLVHSNRNTYLHWYQQKPGQAPRLLIYKVSIRFSGVPDRFSGSGSGTDFTLKISRVEAEDVGVYYCGQGTQVPYTFGQGTKLEIK |
| 1.33 | CE115HA000/GLS3000 N53G (antibody, IgG1, name in Kabat numbering, V domains shown, one-arm IgG1) VH: QVQLVESGGGVVQPGRSLRLSCAASGFTFSNAWMHWVRQAPGKGLEWVAQIKAKSNNYATYYAESVKGRFTISRDDSKNSLYLQMNSLKTEDTAVYYCRYVHYGAYYGVDAWGQGTTVTVSS VL: DIVMTQSPLSLPVTPGEPASISCRSSQSLVHSNRNTYLHWYQQKPGQAPRLLIYKVSGRFSGVPDRFSGSGSGTDFTLKISRVEAEDVGVYYCGQGTQVPYTFGQGTKLEIK |
| 1.31 | CE115HA000/GLS3000 N53H (antibody, IgG1, name in Kabat numbering, V domains shown, one-arm IgG1) VH: QVQLVESGGGVVQPGRSLRLSCAASGFTFSNAWMHWVRQAPGKGLEWVAQIKAKSNNYATYYAESVKGRFTISRDDSKNSLYLQMNSLKTEDTAVYYCRYVHYGAYYGVDAWGQGTTVTVSS VL: DIVMTQSPLSLPVTPGEPASISCRSSQSLVHSNRNTYLHWYQQKPGQAPRLLIYKVSHRFSGVPDRFSGSGSGTDFTLKISRVEAEDVGVYYCGQGTQVPYTFGQGTKLEIK |
| 1.05 | CE115HA000/GLS3000 N53K (antibody, IgG1, name in Kabat numbering, V domains shown, one-arm IgG1) VH: QVQLVESGGGVVQPGRSLRLSCAASGFTFSNAWMHWVRQAPGKGLEWVAQIKAKSNNYATYYAESVKGRFTISRDDSKNSLYLQMNSLKTEDTAVYYCRYVHYGAYYGVDAWGQGTTVTVSS VL: DIVMTQSPLSLPVTPGEPASISCRSSQSLVHSNRNTYLHWYQQKPGQAPRLLIYKVSKRFSGVPDRFSGSGSGTDFTLKISRVEAEDVGVYYCGQGTQVPYTFGQGTKLEIK |
| 2.62 | CE115HA000/GLS3000 N30V (antibody, IgG1, name in Kabat numbering, V domains shown, one-arm IgG1) VH: QVQLVESGGGVVQPGRSLRLSCAASGFTFSNAWMHWVRQAPGKGLEWVAQIKAKSNNYATYYAESVKGRFTISRDDSKNSLYLQMNSLKTEDTAVYYCRYVHYGAYYGVDAWGQGTTVTVSS VL: DIVMTQSPLSLPVTPGEPASISCRSSQSLVHSNRVTYLHWYQQKPGQAPRLLIYKVSNRFSGVPDRFSGSGSGTDFTLKISRVEAEDVGVYYCGQGTQVPYTFGQGTKLEIK |
| 0.96 | CE115HA000/GLS3000 N53F (antibody, IgG1, name in Kabat numbering, V domains shown, one-arm IgG1) VH: QVQLVESGGGVVQPGRSLRLSCAASGFTFSNAWMHWVRQAPGKGLEWVAQIKAKSNNYATYYAESVKGRFTISRDDSKNSLYLQMNSLKTEDTAVYYCRYVHYGAYYGVDAWGQGTTVTVSS VL: DIVMTQSPLSLPVTPGEPASISCRSSQSLVHSNRNTYLHWYQQKPGQAPRLLIYKVSFRFSGVPDRFSGSGSGTDFTLKISRVEAEDVGVYYCGQGTQVPYTFGQGTKLEIK |
